Target: the molecule itself
Assay: FRET or BRET + split reporter

B1: Adenosine A2A receptor (receptor, UniProt P29274 1-412, looked up)
chain: MPIMGSSVYITVELAIAVLAILGNVLVCWAVWLNSNLQNVTNYFVVSLAAADIAVGVLAIPFAITISTGFCAACHGCLFIACFVLVLTQSSIFSLLAIAIDRYIAIRIPLRYNGLVTGTRAKGIIAICWVLSFAIGLTPMLGWNNCGQPKEGKNHSQGCGEGQVACLFEDVVPMNYMVYFNFFACVLVPLLLMLGVYLRIFLAARRQLKQMESQPLPGERARSTLQKEVHAAKSLAIIVGLFALCWLPLHIINCFTFFCPDCSHAPLWLMYLAIVLSHTNSVVNPFIYAYRIREFRQTFRKIIRSHVLRQQEPFKAAGTSARVLAAHGSDGEQVSLRLNGHPPGVWANGSAPHPERRPNGYALGLVSGGSAQESQGNTGLPDVELLSHELKGVCPEPPGLDDPLAQDGAGVS
  stoichiometry N: ≥ 3
